From FireProtDB (doi:10.1021/bi00164a007)

Conditions: Saccharomyces cerevisiae (strain ATCC 204508 / S288c), CD, reversible: yes; for denaturant m value / denaturant midpoint (higher = more stable) / unfolding free energy: 27 °C, GdnHCl
[1] = pH 4.6, glycine 40 mM, structure 1YCC
[2] = pH 4.6, Thermal, Sodium acetate 50 mM, structure 1YCC
[3] = pH 6, Thermal, Sodium phosphate 50 mM, structure 1YCC
[4] = pH 7.2, Potassium phosphate 50 mM, structure 1YCC
[5] = pH 6, Thermal, Sodium phosphate 50 mM
[6] = pH 7.2, Potassium phosphate 50 mM

Sequence of Cytochrome c isoform 1 V26C, P00044 (P00044 whole entry V26C, canonical isoform): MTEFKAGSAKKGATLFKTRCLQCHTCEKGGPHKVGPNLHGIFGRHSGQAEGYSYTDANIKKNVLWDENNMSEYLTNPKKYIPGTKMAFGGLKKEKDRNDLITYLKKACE
Sequence of Cytochrome c isoform 1 wild type, P00044 (P00044 whole entry, canonical isoform): as the sequence (P00044 whole entry V26C, canonical isoform) above, with C26V counted along it

Row | Substance | denaturant m value [1] [kcal/mol/M] | denaturant midpoint (higher = more stable) [1] [M] | unfolding free energy [1] [kcal/mol] | Tm [2] [°C] | unfolding enthalpy (van 't Hoff) [2] [kcal/mol] | Tm [3] [°C] | change of melting temperature, mutant - wild type (higher = more stable) [3] [°C] | unfolding enthalpy (van 't Hoff) [3] [kcal/mol] | denaturant m value [4] [kcal/mol/M] | denaturant midpoint (higher = more stable) [4] [M] | unfolding free energy [4] [kcal/mol] | Tm [5] [°C] | unfolding enthalpy (van 't Hoff) [5] [kcal/mol] | denaturant m value [6] [kcal/mol/M] | denaturant midpoint (higher = more stable) [6] [M] | unfolding free energy [6] [kcal/mol]
1 | Cytochrome c isoform 1 V26C, P00044 | 2.7 | 1.1 | 2.9 | 53.4 | 64.5 | 58.5 | 6.8 | 63.8 | 2.6 | 1.2 | 3 |  |  |  |  | 
2 | Cytochrome c isoform 1 wild type, P00044 |  |  |  |  |  |  |  |  |  |  |  | 51.7 | 84.5 | 4.6 | 0.9 | 4.1
